Experimental data as given in US8030325B2, “Biosynthetic gene cluster for the production of a complex polyketide” (Wyeth LLC, priority 2004, dated 2011).

B1: GDNF: glial-derived neurotrophic factor, control (protein, UniProt P39905 78-211, looked up)
Glial cell line-derived …: SPDKQMAVLPRRERNRQAAAANPENSRGKGRRGQRGKNRGCVLTAIHLNVTDLGLGYETKEELIFRYCSGSCDAAETTYDKILKNLSRNRRLVSDKVGQACCRPIAFDDDLSFLDDNLVYHILRKHSAKRCGCI

Tested on: mesencephalic dopanergic neuron cultures
Experiment: High-affinity 3H-DA uptake in ventral mesencephalic cultures, with or without MPP+ exposure
Format: cell-based, rat
Conditions: for protection against MPP toxicity (3H-DA uptake): pre-treatment 1 hr or 24 hr, MPP+ 1 hr, recovery 24 hr or 48 hr
Protocol: Ventral mesencephalic cultures were prepared from E15 rat embryos and maintained for […] before experimentation according to the method of Pong et al., J Neurochem.
Cultures were then exposed to 10 μM 1-methyl-4-phenylpyridinium (MPP+) for 1 hr, in the presence of drug. After the 1 hr exposure, media was changed 3×, and fresh drug was added for an additional 24 hr or 48 hr.

Molecule	protection against MPP toxicity (3H-DA uptake)	DA uptake in normal mesencephalic dopanergic neuron cultures (normal cultures, no MPP+)
CC/C1=C\CC(/C(C)=C/C(C)C(C)O)OC(=O)C2CCCCN2C(=O)C(=O)C2(O)OC(CCC2C)CC(O)C(C)C(O)CC(O)CC(O)/C(C)=C/C(C)CC(C)C1O (stereo not drawn) [meridamycin]	partial, but significant protection	
B1	partial, but significant protection	enhanced DA uptake
